Source: article PMC12350261

Legend:
[1] = biological target: human D-glucuronyl C5-epimerase Glce^167-617 (human); experiment: dynamic light scattering; DynaPro NanoStar, room temperature, 2 uM Glce^167-617; hydrodynamic radius turned into an estimated molecular weight
[2] = biological target: human D-glucuronyl C5-epimerase Glce^167-617 (human); experiment: crystal structure; apo Glce^167-617, sitting-drop vapour diffusion at 20 C, 0.2 M ammonium sulfate, 0.1 M Tris pH 8.5, 22% PEG 3,350; space group C 1 2 1, two molecules in the asymmetric unit; 2.88 A
[3] = biological target: human D-glucuronyl C5-epimerase Glce^167-617 (human); experiment: SEC; Superdex 200 10/300 GL, 18 C, 20 mM Tris-HCl pH 8.0, 200 mM NaCl, 1 mM DTT, 100 ug loaded, calibrated with gel filtration standard; apparent molecular weight

Measured: stoichiometry N

human D-glucuronyl C5-epimerase Glce^167-617 (domain or fragment)
2: all assays above
